The text below walks through data of patent US5739291, “Glutamate receptor antibodies” (The Salk Institute For Biological Studies, dated 1998).

The assay deals with glutamate receptor subunit GluR2 (rat). The assay can be described thus: cell-based or functional assay.
glutamate receptor subunit GluR2 (rat), sequence (chain, as listed by the source limits assumed): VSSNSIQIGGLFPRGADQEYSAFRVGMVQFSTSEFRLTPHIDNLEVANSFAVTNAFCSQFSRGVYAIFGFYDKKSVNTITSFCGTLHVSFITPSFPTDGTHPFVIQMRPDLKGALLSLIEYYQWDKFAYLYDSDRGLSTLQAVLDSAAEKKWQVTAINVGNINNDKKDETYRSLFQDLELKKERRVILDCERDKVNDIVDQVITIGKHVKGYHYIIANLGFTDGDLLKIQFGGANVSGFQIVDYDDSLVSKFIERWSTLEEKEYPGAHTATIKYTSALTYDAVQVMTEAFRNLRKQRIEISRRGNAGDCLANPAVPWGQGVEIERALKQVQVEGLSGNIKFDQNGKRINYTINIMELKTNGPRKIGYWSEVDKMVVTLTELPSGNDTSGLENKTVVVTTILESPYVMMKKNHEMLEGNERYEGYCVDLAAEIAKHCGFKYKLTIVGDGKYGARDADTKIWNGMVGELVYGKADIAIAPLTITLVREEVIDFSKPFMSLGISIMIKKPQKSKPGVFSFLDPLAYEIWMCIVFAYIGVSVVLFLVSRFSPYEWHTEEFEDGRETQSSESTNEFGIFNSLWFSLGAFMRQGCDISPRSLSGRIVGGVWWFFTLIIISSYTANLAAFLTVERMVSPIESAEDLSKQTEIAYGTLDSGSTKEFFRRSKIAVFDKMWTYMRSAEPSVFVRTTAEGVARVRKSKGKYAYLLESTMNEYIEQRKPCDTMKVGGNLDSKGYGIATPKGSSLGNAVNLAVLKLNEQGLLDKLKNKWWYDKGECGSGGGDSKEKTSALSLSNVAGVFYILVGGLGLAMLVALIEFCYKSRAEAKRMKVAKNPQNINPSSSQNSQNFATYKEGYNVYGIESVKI

B1: glutamate receptor subunit GluR1 (receptor)
chain: ANFPNNIQIGGLFPNQQSQEHAAFRFALSQLTEPPKLLPQIDIVNISDTFEMTYRFCSQFSKGVYAIFGFYERRTVNMLTSFCGALHVCFITPSFPVDTSNQFVLQLRPELQEALISIIDHYKWQTFVYIYDADRGLSVLQRVLDTAAEKNWQVTAVNILTTTEEGYRMLFQDLEKKKERLVVVDCESERLNAILGQIVKLEKNGIGYHYILANLGFMDIDLNKFKESGRNVTGFQLVNYTDTIPARIMQQWRTSDSRDHTRVDWKRPKYTSALTYDGVKVMAEAFQSLRRQRIDISRRGNAGDCLANPAVPWGQGIDIQRALQQVRFEGLTGNVQFNEKGRRTNYTLHVIEMKHDGIRKIGYWNEDDKFVPAATDAQAGGDNSSVQNRTYIVTTILEDPYVMLKKNANQFEGNDRYEGYCVELAAEIAKHVGYSYRLEIVSDGKYGARDPDTKAWNGMVGELVYGRADVAVAPLTITLVREEVIDFSKPFMSLGISIMIKKPQKSKPGVFSFLDPLAYEIWMCIVFAYIGVSVVLFLVSRFSPYEWHSEEFEEGRDQTTSDQSNEFGIFNSLWFSLGAFMQQGCDISPRSLSGRIVGGVWWFFTLIIISSYTANLAAFLTVERMVSPIESAEDLAKQTEIAYGTLEAGSTKEFFRRSKIAVFEKMWTYMKSAEPSVFVRTTEEGMIRVRKSKGKYAYLLESTMNEYIEQRKPCDTMKVGGNLDSKGYGIATPKGSALRNPVNLAVLKLNEQGLLDKLKNKWWYDKGECGTGGGDSKDKTSALSLSNVAGVFYILIGGLGLAMLVALIEFCYKSRSESKRMKGFCLIPQQSINEAIRTSTLPRNSGAGASGGGGSGENGRVVSQDFPKSMQSIPCMSHSSGMPLGATGL
As for B1, the “KA-evoked currents in Xenopus oocytes on co-expression, against the summed responses of singly injected oocytes” value is around 4 fold.
